Laboratory results taken from paper PMC11529724.

Target: microtubules assembled from porcine brain tubulin (porcine) (UniProt P02550)
Sequence (P02550 whole entry, chain 1 of 2): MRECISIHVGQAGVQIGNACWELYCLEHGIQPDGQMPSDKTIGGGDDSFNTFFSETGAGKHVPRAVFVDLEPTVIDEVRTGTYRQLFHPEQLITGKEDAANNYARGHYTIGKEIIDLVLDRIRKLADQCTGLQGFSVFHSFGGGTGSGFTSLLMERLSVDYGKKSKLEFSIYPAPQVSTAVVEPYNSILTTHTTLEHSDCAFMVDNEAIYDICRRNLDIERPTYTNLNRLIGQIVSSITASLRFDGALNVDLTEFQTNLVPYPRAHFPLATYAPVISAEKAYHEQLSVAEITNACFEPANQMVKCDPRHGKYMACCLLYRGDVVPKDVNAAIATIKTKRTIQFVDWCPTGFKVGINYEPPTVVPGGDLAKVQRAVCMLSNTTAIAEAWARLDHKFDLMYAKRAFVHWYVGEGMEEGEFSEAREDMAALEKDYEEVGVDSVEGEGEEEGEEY
Sequence (P02554 whole entry, chain 2 of 2, further chain): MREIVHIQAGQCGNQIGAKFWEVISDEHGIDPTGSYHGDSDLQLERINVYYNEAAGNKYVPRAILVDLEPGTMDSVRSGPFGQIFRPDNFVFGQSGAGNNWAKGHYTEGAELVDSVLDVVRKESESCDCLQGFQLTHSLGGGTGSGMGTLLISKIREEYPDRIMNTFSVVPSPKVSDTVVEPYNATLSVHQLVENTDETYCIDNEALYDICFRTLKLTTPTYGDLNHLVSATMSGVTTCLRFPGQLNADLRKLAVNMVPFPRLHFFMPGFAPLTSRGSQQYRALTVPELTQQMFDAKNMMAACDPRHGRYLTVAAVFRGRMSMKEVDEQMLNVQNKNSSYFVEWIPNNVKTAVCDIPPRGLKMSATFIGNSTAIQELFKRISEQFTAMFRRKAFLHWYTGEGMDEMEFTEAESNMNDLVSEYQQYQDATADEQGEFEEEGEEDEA

Row | Substance | glutamylation activity with taxol-stabilized MTs, normalized to WT | glutamylation activity with taxol-stabilized MTs, decrease against WT [% decrease]
1 | TTLL6 with R403 and R407 mutated to alanine (from UniProt A4Q9E8 51-502) (enzyme) | 55 % of WT | 
2 | TTLL6 with R415 and R418 mutated to alanine (from UniProt A4Q9E8 51-502) (enzyme) |  | 47
